B1: Redβ177-His6 (N-terminal residues 1-177 of the Redβ annealase of bacteriophage λ) (domain or fragment, bacteriophage lambda (phage λ), UniProt P03698 1-177, looked up)
chain: MSTALATLAGKLAERVGMDSVDPQELITTLRQTAFKGDASDAQFIALLIVANQYGLNPWTKEIYAFPDKQNGIVPVVGVDGWSRIINENQQFDGMDFEQDNESCTCRIYRKDRNHPICVTEWMDECRREPFKTREGREITGPWQSHPKRMLRHKAMIQCARLAFGFAGIYDKDEAER
notes: Redβ (Beta) annealase, product of the bet gene of bacteriophage lambda, UniProtKB P03698, N-terminal residues 1-177 (C-terminally truncated); The molecule forms a helical filament of no fixed number of subunits; Residues 3-169 were modelled, except 133-138; also called Redβ177-6xHis; Redβ N-terminal domain; not shown: His6, C-terminal, kept
B2: Oligo 1 + Oligo 2 annealing intermediate (27mer) (dsDNA)
DNA 1: TGCAGCAGCTTTACCATCTGCCGCTGG
DNA 2: CCAGCGGCAGATGGTAAAGCTGCTGCA

Key:
[1] = target: the molecule itself; experiment: cryo-EM structure; purified Redβ177 incubated in turn with two complementary 27mer oligonucleotides (molar ratio 7.7:1:1) in 20 mM KH2PO4 pH 6.0, 5 mM MgCl2, room temperature, then dialysed overnight at 4 °C; helical reconstruction of the 1-start left-handed helix, 3.3 Å; a 2-start assembly was seen only in 2D classes
Redβ177 = target: T1, Redβ177 (Escherichia coli bacteriophage lambda, UniProt P03698 1-177); experiment: cryo-EM structure (helical reconstruction, 3.3 Å); 5 mM MgCl2; Redβ177:Oligo 1:Oligo 2 7.7:1:1; 4 bp per monomer; base identity averaged, arbitrary sequence modelled; 20 mM KH2PO4 pH 6.0, 5 mM MgCl2; 30 min at room temperature with each oligo, then dialysis overnight at 4 °C; conditions: protein: recombinant; tags: C-terminal His6; blunt
T1 sequence: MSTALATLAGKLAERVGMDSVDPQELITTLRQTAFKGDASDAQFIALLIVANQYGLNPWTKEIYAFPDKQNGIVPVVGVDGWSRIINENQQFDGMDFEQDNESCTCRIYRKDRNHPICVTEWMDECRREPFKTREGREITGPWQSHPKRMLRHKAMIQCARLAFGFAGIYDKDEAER

Binder | binding result [1] | binding result (Redβ177)
B1 | binds | –
B2 | – | binds
